According to patent US20080247944A1 (published 2008):

T1: IRTA-2-Fc antigen (fusion protein composed of the extracellular domain of the IRTA-2 linked to the Fc portion … (human, UniProt Q96RD9 16-851))
T1 construct: not shown: Fc portion of human IgG1
T1 chain: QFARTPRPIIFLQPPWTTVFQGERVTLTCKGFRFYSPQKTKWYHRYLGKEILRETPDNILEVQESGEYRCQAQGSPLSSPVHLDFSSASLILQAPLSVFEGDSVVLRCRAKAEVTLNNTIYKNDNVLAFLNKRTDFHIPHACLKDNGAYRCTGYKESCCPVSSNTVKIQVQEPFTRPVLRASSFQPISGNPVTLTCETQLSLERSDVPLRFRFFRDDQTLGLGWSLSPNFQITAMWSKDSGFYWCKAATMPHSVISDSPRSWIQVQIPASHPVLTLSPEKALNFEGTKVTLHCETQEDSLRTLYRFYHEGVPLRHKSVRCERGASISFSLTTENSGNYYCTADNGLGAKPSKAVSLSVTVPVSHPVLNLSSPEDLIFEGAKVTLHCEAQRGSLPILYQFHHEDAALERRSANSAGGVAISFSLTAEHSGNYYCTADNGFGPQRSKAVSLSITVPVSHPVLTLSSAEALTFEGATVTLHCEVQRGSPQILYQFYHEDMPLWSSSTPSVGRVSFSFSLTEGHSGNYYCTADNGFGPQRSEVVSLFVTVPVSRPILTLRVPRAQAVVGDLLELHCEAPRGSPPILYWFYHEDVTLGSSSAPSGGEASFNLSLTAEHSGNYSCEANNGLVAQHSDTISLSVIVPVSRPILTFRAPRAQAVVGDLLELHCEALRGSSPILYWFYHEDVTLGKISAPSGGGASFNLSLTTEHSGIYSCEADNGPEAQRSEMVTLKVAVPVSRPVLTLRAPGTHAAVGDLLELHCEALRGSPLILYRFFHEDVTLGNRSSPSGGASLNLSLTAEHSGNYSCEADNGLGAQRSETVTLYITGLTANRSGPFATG

T2: IRTA-2, full length transmembrane form with N-terminal myc tag, on transfected CHO cells (human, UniProt Q96RD9 16-977)
T2 construct: also called CHO cells transfected with IRTA-2; human IRTA-2; not shown: myc tag at the N-terminus
T2 chain: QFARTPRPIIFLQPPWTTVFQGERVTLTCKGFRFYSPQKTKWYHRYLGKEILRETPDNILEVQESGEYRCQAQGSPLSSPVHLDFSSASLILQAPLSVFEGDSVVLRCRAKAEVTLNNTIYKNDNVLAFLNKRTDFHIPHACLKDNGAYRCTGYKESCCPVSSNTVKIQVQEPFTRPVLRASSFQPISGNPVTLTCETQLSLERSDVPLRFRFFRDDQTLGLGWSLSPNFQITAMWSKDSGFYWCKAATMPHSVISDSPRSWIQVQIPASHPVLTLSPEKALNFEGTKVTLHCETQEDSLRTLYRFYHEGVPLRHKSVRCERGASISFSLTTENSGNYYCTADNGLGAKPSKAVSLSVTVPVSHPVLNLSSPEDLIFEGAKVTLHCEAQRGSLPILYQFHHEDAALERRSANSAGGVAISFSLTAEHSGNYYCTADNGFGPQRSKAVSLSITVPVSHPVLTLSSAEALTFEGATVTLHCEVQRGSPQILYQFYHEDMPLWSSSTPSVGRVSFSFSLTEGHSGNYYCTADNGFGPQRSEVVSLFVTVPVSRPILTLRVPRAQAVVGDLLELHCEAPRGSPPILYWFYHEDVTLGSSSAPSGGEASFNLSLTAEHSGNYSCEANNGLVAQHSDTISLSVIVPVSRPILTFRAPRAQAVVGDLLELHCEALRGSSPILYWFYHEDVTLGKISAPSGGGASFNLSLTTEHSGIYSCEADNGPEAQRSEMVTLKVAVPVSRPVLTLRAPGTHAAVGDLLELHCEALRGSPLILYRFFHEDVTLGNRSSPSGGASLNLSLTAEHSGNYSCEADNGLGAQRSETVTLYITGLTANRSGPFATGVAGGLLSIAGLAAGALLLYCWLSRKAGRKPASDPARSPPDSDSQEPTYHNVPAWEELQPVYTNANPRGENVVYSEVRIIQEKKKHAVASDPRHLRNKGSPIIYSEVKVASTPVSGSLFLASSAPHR

T3: IRTA-4, full length transmembrane form with N-terminal myc tag, on transfected CHO cells (human, UniProt Q96LA5 20-508)
T3 construct: also called CHO cells transfected with IRTA-4; human IRTA-4; not shown: myc tag at the N-terminus
T3 sequence: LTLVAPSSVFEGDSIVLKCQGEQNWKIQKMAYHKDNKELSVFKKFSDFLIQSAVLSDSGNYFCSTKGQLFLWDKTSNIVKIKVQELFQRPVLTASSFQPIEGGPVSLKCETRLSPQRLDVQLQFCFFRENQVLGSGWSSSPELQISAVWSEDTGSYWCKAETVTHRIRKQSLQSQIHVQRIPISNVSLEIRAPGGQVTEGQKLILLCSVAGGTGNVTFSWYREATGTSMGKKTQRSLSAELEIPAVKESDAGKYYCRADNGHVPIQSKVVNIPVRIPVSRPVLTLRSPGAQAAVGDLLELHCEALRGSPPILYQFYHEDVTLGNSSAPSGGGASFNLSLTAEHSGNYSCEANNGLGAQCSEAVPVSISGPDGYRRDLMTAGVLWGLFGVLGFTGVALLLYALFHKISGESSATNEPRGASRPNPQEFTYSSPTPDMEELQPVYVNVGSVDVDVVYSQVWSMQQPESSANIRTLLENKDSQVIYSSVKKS

T4: IRTA-3, full length transmembrane form with N-terminal myc tag, on transfected CHO cells (human, UniProt Q96P31 18-734)
T4 construct: also called CHO cells transfected with IRTA-3; human IRTA-3; not shown: myc tag at the N-terminus
T4 sequence: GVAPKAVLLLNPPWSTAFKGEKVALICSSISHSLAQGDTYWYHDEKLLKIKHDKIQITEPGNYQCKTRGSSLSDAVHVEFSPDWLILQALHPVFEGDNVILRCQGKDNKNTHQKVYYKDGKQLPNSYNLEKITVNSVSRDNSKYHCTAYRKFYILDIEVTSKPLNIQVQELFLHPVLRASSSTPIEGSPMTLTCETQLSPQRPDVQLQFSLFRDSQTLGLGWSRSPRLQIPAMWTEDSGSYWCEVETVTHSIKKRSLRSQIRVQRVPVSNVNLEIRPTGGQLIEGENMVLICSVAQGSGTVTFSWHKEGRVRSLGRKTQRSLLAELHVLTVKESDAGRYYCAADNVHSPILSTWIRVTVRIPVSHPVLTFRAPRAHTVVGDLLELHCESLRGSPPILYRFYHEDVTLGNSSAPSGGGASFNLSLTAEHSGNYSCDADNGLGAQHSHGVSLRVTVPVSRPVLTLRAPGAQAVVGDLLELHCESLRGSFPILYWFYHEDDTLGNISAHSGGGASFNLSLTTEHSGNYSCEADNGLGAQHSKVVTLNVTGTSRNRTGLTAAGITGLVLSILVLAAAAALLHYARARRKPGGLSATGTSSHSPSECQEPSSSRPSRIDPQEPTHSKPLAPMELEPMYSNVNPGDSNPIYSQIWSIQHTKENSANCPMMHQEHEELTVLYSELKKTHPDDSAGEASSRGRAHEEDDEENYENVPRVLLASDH


Tests used:
[1] = molecular target: T1, IRTA-2-Fc antigen (fusion protein …); test: Biacore SPR, antibody captured by anti-human IgG on CM5 chip, IRTA-2-Fc flowed at 50-400 nM, 1:1 Langmuir fit
Description: Anti-IRTA-2 antibodies were characterized for affinities and binding kinetics by Biacore analysis (Biacore AB, Uppsala, Sweden). Purified anti-IRTA-2 monoclonal antibodies were captured by anti-human IgG antibody covalently linked to a CM5 chip (carboxy methyl dextran coated chip) via primary amines, using standard amine coupling chemistry and kit provided by Biacore. Binding was measured by flowing the IRTA-2-Fc antigen (a fusion protein composed of the extracellular domain of the IRTA-2 linked to the Fc portion of human IgG1) in HBS EP buffer (provided by Biacore AB) at concentrations of 400, 300, 200, 100, and 50 nM at a flow rate of 12 μl/min. The antigen-antibody association kinetics was followed for either 20 minutes (for 8A1) or 5 minutes (for 9D12) and the dissociation kinetics was followed for ether 10 minutes (for 8A1) or 5 minutes (for 9D12). The association and dissociation curves were fit to a 1:1 Langmuir binding model using BIAevaluation software (Biacore AB).

[2] = molecular target: T2, IRTA-2, full length transmembrane form …; test: flow cytometry on CHO cells transfected with myc-tagged IRTA-2; antibody at 10 µg/ml; PE-labeled anti-human IgG
Description: (§1) Chinese hamster ovary (CHO) cell lines that express either the IRTA-2, IRTA-3 or IRTA-4 protein at the cell surface were developed and used to determine the specificity of the IRTA-2 monoclonal antibodies by flow cytometry. CHO cells were transfected with expression plasmids containing full length cDNA encoding transmembrane forms of IRTA-2, IRTA-3, or IRTA-4. In addition, the transfected proteins contained a myc tag at the N-terminus for detection by anti-myc antibody. Binding of the two anti-IRTA-2 monoclonal antibodies was assessed by incubating the transfected cells with each of the IRTA-2 Abs at a concentration of 10 μg/ml. The cells were washed and binding was detected with a phycoerythrin-labeled anti-human IgG Ab. A murine anti-myc Ab followed by labeled anti-murine IgG was used as the positive control. Secondary antibody alone was used as a negative control. The results are depicted in FIGS. 7A-C. The IRTA-2 monoclonal antibodies 9D12 and 8A1 bound to the CHO line transfected with IRTA-2 but not to CHO lines expressing IRTA-3 or -4, as measured by the mean fluorescent intensity (MFI) of staining.

[3] = molecular target: T3, IRTA-4, full length transmembrane form …; test: flow cytometry on CHO cells transfected with myc-tagged IRTA-4; PE-labeled anti-human IgG
Description: as §1

[4] = molecular target: T4, IRTA-3, full length transmembrane form …; test: flow cytometry on CHO cells transfected with myc-tagged IRTA-3; PE-labeled anti-human IgG
Description: as §1

Kd [1] [nM] | koff [1] [s⁻¹] | kon [1] [M⁻¹ s⁻¹] | binding result [2] | binding result [3] | binding result [4] | Binder
20 | 0.00011 | 5800 | – | – | – | 8A1 human monoclonal antibody (antibody, V domains shown, Purified from a hybridoma of a KM Mouse; Human IgG (captured and detected with anti-human IgG) with a kappa light chain (VK L18); also called anti-IRTA-2 HuMAb 8A1) VH: QMQLVQSGAEVKKPGASVKVSCKASGYTFISYDINWVRQATGQGLEWMGWMHPNSGNTGYAQKFQGRVTMTRNTSISTAYMELSSLRSEDTAVYYCARGRGITMVRGGIIYYGMDVWGQGTTVTVSS VL: AIQLTQSPSSLSASVGDRVTITCRASQGISSALAWYQQKPGKAPKLLIYDASSLESGVPSRFSGSGSGTDFTLTISSLQPEDFATYYCQQFNSYPHTFGQGTKLEIK
2.1 | 6.9e-05 | 34000 | binds | no binding (tested: 10 µg/ml) | no binding (tested: 10 µg/ml) | 9D12 human monoclonal antibody (antibody, V domains shown, Purified from a hybridoma of a HuMAb Mouse; Human IgG (captured and detected with anti-human IgG) with a kappa light chain (VK L6); also called anti-IRTA-2 HuMAb 9D12) VH: EVQLLESGGGLVQPGGSLRLSCAASGFTFSSSAMSWVRQAPGKGLEWVSSISGSGDTTYYADSVKGRFTISRDNSKNTLYLQMNSLRVEDAALYYCAANWGAAFDIWGQGTMVTVSS VL: EIVLTQSPATLSLSPGERATLSCRASQSVSSYLAWYQQKPGQAPRLLIYDASNRATGIPARFSGSGSGTDFTLTISSLEPEDFAVYYCQQRSNWPRWTFGQGTKVEIK
